According to US12269859B2, “Synthetic immune receptors and methods of use thereof” (Angeles Therapeutics, Inc., priority 2016, dated 2025):

B1: 030817-W07 (protein)
chain: MALPVTALLLPLALLLHAARPSTVMTQSPDSLAVSLGERATINCKSSQSNSNDVAWYQQKPGQSPKVLIYFASNRYSGVPDRFSGSGYGTDFTLTISSLQAEDVAVYFCQQDYSSPLTFGAGTKLELKRADALEDLKNVFPPEVAVFEPSKAEIAHTQKATLVCLATGFYPDHVELSWWVNGKEVHSGVCTDPQPLKEQPALNDSRYCLSSRLRVSATFWQNPRNHFRCQVQFYGLSENDEWTQDRAKPVTQIVSAEAWGRADCGITSASYHQGVLSATILYEILLGKATLYAVLVSALVLMAMVKRKDSRGRAKRSGSGATNFSLLKQAGDVEENPGPTSMDWIWRILFLVGAATGAHSFEQIQLVQSGSELKKPGASVKVSCKASGYTFTNFGVNWVRQAPGKGLEWMGWINTYTGEPSYAQGFTGRFVFSLDASVSTAYLQISSLKAEDTATYFCTRRTNYYGTSYYYAMDYWGQGTTVTVSSAKTTTRIQNPDPAVYQLRDSKSSDKSVCLFTDFDSQTNVSQSKDSDVYITDKCVLDMRSMDFKSNSAVAWSNKSDFACANAFNNSIIPEDTFFPSSDVPCDVKLVEKSFETDTNLNFQNLSVIGFRILLLKVAGFNLLMTLRLWSSRAKRSGSGVKQTLNFDLLKLAGDVESNPGPSRGHMTEYKPTVRLATRDDVPRAVRTLAAAFADYPATRHTVDPDRHIERVTELQELFLTRVGLDIGKVWVADDGAAVAVWTTPESVEAGAVFAEIGPRMAELSGSRLAAQQQMEGLLAPHRPKEPAWFLATVGVSPDHQGKGLGSAVVLPGVEAAERAGVPAFLETSAPRNLPFYERLGFTVTADVEVPEGPRTWCMTRKPGA
B2: 030817-X05 (protein)
chain: MALPVTALLLPLALLLHAARPDIQMTQSPSSLSASVGDRVTITCRASSSVSYMHWYQQKPGKAPKPLIYAPSNLASGVPSRFSGSGSGTDFTLTISSLQPEDFATYYCQQWSFNPPTFGQGTKVEIKRLEDLKNVFPPEVAVFEPSKAEIAHTQKATLVCLATGFYPDHVELSWWVNGKEVHSGVCTDPQPLKEQPALNDSRYCLSSRLRVSATFWQNPRNHFRCQVQFYGLSENDEWTQDRAKPVTQIVSAEAWGRADCGITSASYHQGVLSATILYEILLGKATLYAVLVSALVLMAMVKRKDSRGRAKRSGSGATNFSLLKQAGDVEENPGPTSMDWIWRILFLVGAATGAHSFEEVQLVESGGGLVQPGGSLRLSCAASGYTFTSYNMHWVRQAPGKGLEWVGAIYPGNGDTSYNQKFKGRFTISVDKSKNTLYLQMNSLRAEDTAVYYCARVVYYSNSYWYFDVWGQGTLVTVSSTRIQNPDPAVYQLRDSKSSDKSVCLFTDFDSQTNVSQSKDSDVYITDKCVLDMRSMDFKSNSAVAWSNKSDFACANAFNNSIIPEDTFFPSSDVPCDVKLVEKSFETDTNLNFQNLSVIGFRILLLKVAGFNLLMTLRLWSSRAKRSGSGVKQTLNFDLLKLAGDVESNPGPSRGHMTEYKPTVRLATRDDVPRAVRTLAAAFADYPATRHTVDPDRHIERVTELQELFLTRVGLDIGKVWVADDGAAVAVWTTPESVEAGAVFAEIGPRMAELSGSRLAAQQQMEGLLAPHRPKEPAWFLATVGVSPDHQGKGLGSAVVLPGVEAAERAGVPAFLETSAPRNLPFYERLGFTVTADVEVPEGPRTWCMTRKPGA
B3: 030817-F07 (protein)
chain: MALPVTALLLPLALLLHAARPEIVLTQSPGTLSLSPGERATLSCRASSSVPYIHWYQQKPGQAPRLLIYATSALASGIPDRFSGSGSGTDFTLTISRLEPEDFAVYYCQQWLSNPPTFGQGTKLELKRLEIQNPDPAVYQLRDSKSSDKSVCLFTDFDSQTNVSQSKDSDVYITDKCVLDMRSMDFKSNSAVAWSNKSDFACANAFNNSIIPEDTFFPSSDVPCDVKLVEKSFETDTNLNFQNLSVIGFRILLLKVAGFNLLMTLRLWSSRAKRSGSGVKQTLNFDLLKLAGDVESNPGPTSMDWIWRILFLVGAATGAHSFEEVQLVQSGAEVKKPGESLKLSCKGSGRTFTSYNMHWVRQMPGKGLEWMGAIYPLTGDTSYNQKSKLQVTISADKSISTAYLQWSSLKASDTAMYYCARSTYVGGDWQFDVWGKGTTVTVSSTREDLKNVFPPEVAVFEPSKAEIAHTQKATLVCLATGFYPDHVELSWWVNGKEVHSGVCTDPQPLKEQPALNDSRYCLSSRLRVSATFWQNPRNHFRCQVQFYGLSENDEWTQDRAKPVTQIVSAEAWGRADCGITSASYHQGVLSATILYEILLGKATLYAVLVSALVLMAMVKRKDSRGRAKRSGSGATNFSLLKQAGDVEENPGPSRGHMTEYKPTVRLATRDDVPRAVRTLAAAFADYPATRHTVDPDRHIERVTELQELFLTRVGLDIGKVWVADDGAAVAVWTTPESVEAGAVFAEIGPRMAELSGSRLAAQQQMEGLLAPHRPKEPAWFLATVGVSPDHQGKGLGSAVVLPGVEAAERAGVPAFLETSAPRNLPFYERLGFTVTADVEVPEGPRTWCMTRKPGA
B4: 030817-E07 (protein)
chain: MALPVTALLLPLALLLHAARPEIVLTQSPSSLSASVGDRVTITCRASSSLSFMHWYQQKPGKAPKPWIYATSNLASGVPSRFSGSGSGTDYTLTISSLQPEDFATYFCHQWSSNPLTFGGGTKVEIKLEIQNPDPAVYQLRDSKSSDKSVCLFTDFDSQTNVSQSKDSDVYITDKCVLDMRSMDFKSNSAVAWSNKSDFACANAFNNSIIPEDTFFPSSDVPCDVKLVEKSFETDTNLNFQNLSVIGFRILLLKVAGFNLLMTLRLWSSRAKRSGSGVKQTLNFDLLKLAGDVESNPGPTSMDWIWRILFLVGAATGAHSFEQVQLVQSGAEVKKPGASVKVSCKASGYTFTSYNMHWVRQAPGQRLEWIGAIYPGNGDTSYNQKFKGRVTVTRDTSANTAYMELSSLKSEDTAVYYCARSHYGSNYVDYFDYWGQGTLVTVSSTREDLKNVFPPEVAVFEPSKAEIAHTQKATLVCLATGFYPDHVELSWWVNGKEVHSGVCTDPQPLKEQPALNDSRYCLSSRLRVSATFWQNPRNHFRCQVQFYGLSENDEWTQDRAKPVTQIVSAEAWGRADCGITSASYHQGVLSATILYEILLGKATLYAVLVSALVLMAMVKRKDSRGRAKRSGSGATNFSLLKQAGDVEENPGPSRGHMTEYKPTVRLATRDDVPRAVRTLAAAFADYPATRHTVDPDRHIERVTELQELFLTRVGLDIGKVWVADDGAAVAVWTTPESVEAGAVFAEIGPRMAELSGSRLAAQQQMEGLLAPHRPKEPAWFLATVGVSPDHQGKGLGSAVVLPGVEAAERAGVPAFLETSAPRNLPFYERLGFTVTADVEVPEGPRTWCMTRKPGA
B5: 012517-Q12 (protein)
chain: MALPVTALLLPLALLLHAARPLEGKPIPNPLLGLDSTGSGEDLKNVFPPEVAVFEPSKAEIAHTQKATLVCLATGFYPDHVELSWWVNGKEVHSGVCTDPQPLKEQPALNDSRYCLSSRLRVSATFWQNPRNHFRCQVQFYGLSENDEWTQDRAKPVTQIVSAEAWGRADCGITSASYHQGVLSATILYEILLGKATLYAVLVSALVLMAMVKRKDSRGRAKRSGSGATNFSLLKQAGDVEENPGPTSMALPVTALLLPLALLLHAARPEIVLTQSPGTLSLSPGERATLSCRASSSVPYIHWYQQKPGQAPRLLIYATSALASGIPDRFSGSGSGTDFTLTISRLEPEDFAVYYCQQWLSNPPTFGQGTKLELKRGGGGSGGGGSGGGGSEVQLVQSGAEVKKPGESLKLSCKGSGRTFTSYNMHWVRQMPGKGLEWMGAIYPLTGDTSYNQKSKLQVTISADKSISTAYLQWSSLKASDTAMYYCARSTYVGGDWQFDVWGKGTTVTVSSTREQKLISEEDGSGIQNPDPAVYQLRDSKSSDKSVCLFTDFDSQTNVSQSKDSDVYITDKCVLDMRSMDFKSNSAVAWSNKSDFACANAFNNSIIPEDTFFPSSDVPCDVKLVEKSFETDTNLNFQNLSVIGFRILLLKVAGFNLLMTLRLWSSRAKRSGSGVKQTLNFDLLKLAGDVESNPGPSRGHMTEYKPTVRLATRDDVPRAVRTLAAAFADYPATRHTVDPDRHIERVTELQELFLTRVGLDIGKVWVADDGAAVAVWTTPESVEAGAVFAEIGPRMAELSGSRLAAQQQMEGLLAPHRPKEPAWFLATVGVSPDHQGKGLGSAVVLPGVEAAERAGVPAFLETSAPRNLPFYERLGFTVTADVEVPEGPRTWCMTRKPGA
B6: 022817-T04 (protein)
chain: MALPVTALLLPLALLLHAARPEIVLTQSPATLSLSPGERATLSCRASQSVSSYLAWYQQKPGQAPRLLIYDASNRATGIPARFSGSGSGTDFTLTISSLEPEDFAVYYCQQRSNWPITFGQGTRLEIKLEGKPIPNPLLGLDSTGSGEDLKNVFPPEVAVFEPSKAEIAHTQKATLVCLATGFYPDHVELSWWVNGKEVHSGVCTDPQPLKEQPALNDSRYCLSSRLRVSATFWQNPRNHFRCQVQFYGLSENDEWTQDRAKPVTQIVSAEAWGRADCGITSASYHQGVLSATILYEILLGKATLYAVLVSALVLMAMVKRKDSRGRAKRSGSGATNFSLLKQAGDVEENPGPTSMDWIWRILFLVGAATGAHSFEEVQLVESGGGLVQPDRSLRLSCAASGFTFHDYAMHWVRQAPGKGLEWVSTISWNSGTIGYADSVKGRFTISRDNAKNSLYLQMNSLRAEDTALYYCAKDIQYGNYYYGMDVWGQGTTVTVSSTREQKLISEEDGSGIQNPDPAVYQLRDSKSSDKSVCLFTDFDSQTNVSQSKDSDVYITDKCVLDMRSMDFKSNSAVAWSNKSDFACANAFNNSIIPEDTFFPSSDVPCDVKLVEKSFETDTNLNFQNLSVIGFRILLLKVAGFNLLMTLRLWSSRAKRSGSGVKQTLNFDLLKLAGDVESNPGPSRGHMTEYKPTVRLATRDDVPRAVRTLAAAFADYPATRHTVDPDRHIERVTELQELFLTRVGLDIGKVWVADDGAAVAVWTTPESVEAGAVFAEIGPRMAELSGSRLAAQQQMEGLLAPHRPKEPAWFLATVGVSPDHQGKGLGSAVVLPGVEAAERAGVPAFLETSAPRNLPFYERLGFTVTADVEVPEGPRTWCMTRKPGA

System: target antigen-expressing cell line
Assay: Jurkat NFAT-GFP assay, coculture with target cell lines expressing the respective target antigen (summary Table 10A)
Type: cell-based, human
Set-up: key: The signs +/−, +, 2+ etc. after the name of the cell lines indicate the relative degree of positivity on the Jurkat-NFAT-GFP assay as measured by the % GFP positive cells; +: relative degree of positivity on the Jurkat-NFAT-GFP assay as measured by the % GFP positive cells; 2+: relative degree of positivity on the Jurkat-NFAT-GFP assay as measured by the % GFP positive cells
Conditions: relative % GFP positive cells; for NFAT-GFP ASSAY Positive Cell lines: RAJI: SIR-expressing Jurkat-NFAT-GFP cells cocultured with RAJI
In short: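 Read-out: % GFP+ cells by FACS. SIR-transduced, puromycin-selected Jurkat NFAT-GFP (IL-2 promoter reporter) cocultured ~4–18 h with target line, E:T ~1:2; parental cells as control; graded +/−, +, 2+ relative to parental.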

Row | Molecule | NFAT-GFP ASSAY Positive Cell lines: RAJI | further results
1 | B1 | RAJI (+/−) | –
2 | B2 | RAJI (+/−) | –
3 | B3 | RAJI (+/−) | –
4 | B4 | – | NFAT-GFP ASSAY Positive Cell lines: U266 (SIR-expressing Jurkat-NFAT-GFP cells cocultured with U266): U266 (+/−)
5 | B5 | RAJI (+) | –
6 | B6 | – | NFAT-GFP ASSAY Positive Cell lines: NALM6 (SIR-expressing Jurkat-NFAT-GFP cells cocultured with NALM6): (2+)
